Source: paper PMC3223566

Tests used:
[1] = target: M. jannaschii RNA polymerase, wild type, reconstituted from 12 recombinant subunits (M. jannaschii) (UniProt Q58443)
[2] = target: RNAPΔRpo4/7, ten-subunit RNAP subassembly lacking Rpo4/7 (M. jannaschii) (UniProt Q58443)
[3] = target: M. jannaschii RNA polymerase, wild type, reconstituted from 12 recombinant subunits (M. jannaschii) (UniProt Q58443); assay: native gel or EMSA; competition: Spt4/5 or Spt4/5^A4R (0.33, 1, 7.5, 25 μM) added to a preformed complex of free RNAP and TFE^133*DL549 (0.74 μM)
[4] = target: M. jannaschii RNA polymerase, wild type, reconstituted from 12 recombinant subunits (M. jannaschii) (UniProt Q58443); remark: listed apart in the source
[5] = target: M. jannaschii RNA polymerase, wild type, reconstituted from 12 recombinant subunits (M. jannaschii) (UniProt Q58443); assay: native gel or EMSA; competition in the PIC: Spt4/5 (0, 16, 32, 137 μM) added to preformed PICs (DNA, TBP, TFB, RNAP) with fluorescently labeled TFE (0.75 μM)
[6] = target: M. jannaschii RNA polymerase, wild type, reconstituted from 12 recombinant subunits (M. jannaschii) (UniProt Q58443); assay: native gel or EMSA; competition in the TEC: RNAP (0.21 μM), NTS (20 μM), TS (15 μM), RNA (68 μM), TFE^G133*DL549 (0.74 μM), Spt4/5 or Spt4/5^A4R (1, 2.5, 15 μM)
[7] = target: M. jannaschii RNA polymerase, wild type, reconstituted from 12 recombinant subunits (M. jannaschii) (UniProt Q58443); remark: listed apart in the source

B1: TFE (archaeal transcription initiation factor E), unlabeled wild type (natural protein)
chain: MLNDPLVQEVLFNIFEGDEKGFEVIDVLLEKGETTEEEIAKELGVKLNVVRKLLYKLYDARLVDYKRWKDEDTNWYSYTWLPTLEKLPYVVKKKINELIKDLEKKLEFEKNNMFFFCPNCNVRFTFEEAMDYGFSCPGCGNMLQEFDNSELIKDLEEQIKFLKEELKNNPFLK
[1]
  stimulation of promoter-directed runoff transcription by TFE (0, 0.32, 8 μM): 5 fold
[2]
  stimulation of promoter-directed transcription by TFE (8 μM): < 1.2 fold

B2: Spt4/5, transcription elongation factor, wild type (complex)
chain 1: MRACLKCKYLTNDEICPICHSPTSENWIGLLIVINPEKSEIAKKAGIDIKGKYALSVKE
chain 2: MIFAVRTMVGQEKNIAGLMASRAEKEQLDVYSILASESLKGYVLVEAETKGDVEELIKGMPRVRGIVPGTIAIEEIEPLLTPKKIIENIEKGDVVEIIAGPFKGERAKVIRVDKHKEEVTLELENAAVPIPITLPVEGVKIVSKHKD
[3]
  IC50: 550 nM
[4]
  inhibition of transcript synthesis in promoter-directed transcription, Spt4/5 at 55.2 μM: > 10 fold
[5]
  IC50: 29000 nM
[6]
  IC50: 790 nM
[7]
  inhibition of promoter-directed runoff transcription by minimal complexes (DNA, TBP, TFB, RNAP; no TFE): 9.6 µM
